Measured values reported in patent US6500940 (SALK INSTITUTE FOR BIOLOGICAL STUDIES, dated 2002).

T1: human FADD (human, UniProt Q13158 1-208, limits assumed)
T1 construct: also called MORT-1
T1 sequence (looked up): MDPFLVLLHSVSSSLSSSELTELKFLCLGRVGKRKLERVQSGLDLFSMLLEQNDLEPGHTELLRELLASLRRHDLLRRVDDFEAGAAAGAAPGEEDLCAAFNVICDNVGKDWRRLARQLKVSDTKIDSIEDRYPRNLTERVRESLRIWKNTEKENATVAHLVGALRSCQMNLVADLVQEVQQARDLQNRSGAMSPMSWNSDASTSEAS


How the values were obtained:
human Fas (human) = human Fas (human) (UniProt P25445); test: cell-based or functional assay
human FADD = target: T1, human FADD; test: co-immunoprecipitation and immunoblot after transient transfection
Source text: The interaction of LFG with components of the Fas signaling pathway was investigated. Fas and LFG can be co-immunoprecipitated following transient transfection.

human Fas (human), sequence (P25445 26-335): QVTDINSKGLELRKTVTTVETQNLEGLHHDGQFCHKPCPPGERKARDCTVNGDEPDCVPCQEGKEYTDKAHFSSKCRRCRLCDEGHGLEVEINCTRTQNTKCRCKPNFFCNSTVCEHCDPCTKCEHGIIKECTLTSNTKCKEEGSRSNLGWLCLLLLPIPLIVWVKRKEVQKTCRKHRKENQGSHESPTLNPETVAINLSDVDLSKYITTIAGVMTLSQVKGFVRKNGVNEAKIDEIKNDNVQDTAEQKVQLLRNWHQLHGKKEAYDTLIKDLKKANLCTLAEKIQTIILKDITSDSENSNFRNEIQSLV

| Molecule | cell survival of HeLa cells 72 hr after treatment with CH11 (human Fas (human)) [%] | binding result (human FADD) |
| --- | --- | --- |
| mouse anti-human Fas agonistic antibody (CH11) | 17 | – |
| amino-terminal myc epitope-tagged LFG (myc-LFG) (other, not shown: small tags and cut ends, Expressed from an expression vector by transient transfection (HeLa, 293 cells) and found by immunoprecipitation and immunoblot; also called lifeguard) MTRGKLSVANKAPGTEGQQQVHGEKKEAPAVPSAPPSYEEATSGEGMKAGAFPPAPTAVPLHPSWAYVDPSSSSSYDNGFPPETMSSSPLSAGMTKKVRRVFVRKVYTILLIQLLVTLAVVALFTFCDPCQGLCSGQPGWYWASYAVFFATYLTLACCSGPRRHFPWNLILLTVFTLSMAYLTGMLSSYYNTTSVLLCLGITALVCLSVTVFSFQTKFDFTSCQGVLFVLLMTLFFSGLILAILLPFQYVPWLHAVYAALGAGVFTLFLALDTQLLMGNRRHSLSPEEYIFGALNIYLDIIYIFTFFLQLFGTNRE | – | no binding |
